± gives the uncertainty stated by the source.
Test: self-splicing fitness, log relative to wild type (ln ratio); higher = more splicing; Tetrahymena group I intron in knt gene, E. coli kanamycin selection, DiMSum; sequences stand for … in CUCUCU…GGAGGGAAAAGUUAUCAGGCAUGCACCUGGUAGCUAGUCUUUAAACCAAUAGAUUGCAUCGGUUUAAAAGGCAAGACCGUCAAAUUGCGGGAAAGGGGUCAACAGCCGUUCAGUACCAAGUCUCAGGGGAAACUUUGAGAUGGCCUUGCAAAGGGUAUGGUAAUAAGCUGACGGACAUGGUCCUAACCACGCAGCCAAGUCCUAAGUCAACAGAUCUUCUGUUGAUAUGGAUGCAGUUCACAGACUAAAUGUCGGUCGGGGAAGAUGUAUUCUUCUCAUAAGAUAUAGUCGGACCUCUCCUUAAUGGGAGCUAGCGGAUGAAGUGAUGCAACACUGGAGCCGCUGGGAACUAAUUUGUAUGCGAAAGUAUAUUGAUUAGUUUUGGAGUACUCGUGGUCG
Summary of the method: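 DiMSum derived fitness as the error-weighted combination of fold changes across replicates, kanamycin versus no kanamycin, normalised to wild type. E. coli BL21(DE3) held the library, which randomised all eight P1ex-region intron nucleotides within the knt kanamycin-resistance gene on pET-22b(+). Six replicate transformations grew overnight at 37°C or 30°C on LB agar with or without 25 μg/mL kanamycin, also containing 100 μg/mL carbenicillin, 50 μM IPTG and 0.2% rhamnose, and pooled colonies were amplicon-sequenced on an Illumina HiSeq 2500.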

| Sequence | self-splicing fitness (ln) (30 °C) | self-splicing fitness (ln) (37 °C) |
| --- | --- | --- |
| UGAAAGCAAUAUUACGGUCA | -0.166 ± 0.077 | 0.339 ± 0.1 |
| CGUAAGCAAUAUUACGACCA | -2.11 ± 0.35 | -0.83 ± 0.25 |
| GUCUAGCAAUAUUACGGUCG | -1.06 ± 0.089 | -0.996 ± 0.11 |
| ACUCAGCAAUAUUACGGUAC | -2.63 ± 0.13 | -3.01 ± 0.21 |
| GGCCAGCAAUAUUACGACAG | -4.12 ± 0.25 | -3.08 ± 0.35 |
| GUUAAGCAAUAUUACGCCUA | -0.752 ± 0.11 | -0.139 ± 0.11 |
| CGACAGCAAUAUUACGGCCC | -0.607 ± 0.19 | -0.549 ± 0.24 |
| ACUUAGCAAUAUUACGAACC | -0.695 ± 0.21 | -0.285 ± 0.36 |
| UGAGAGCAAUAUUACGGCAA | -1.61 ± 0.33 | -1.15 ± 0.18 |
| CUCUAGCAAUAUUACGGACG | -0.959 ± 0.14 | -0.0675 ± 0.16 |
| UGACAGCAAUAUUACGACAG | -0.934 ± 0.065 | 0.0335 ± 0.084 |
| UGUUAGCAAUAUUACGAUUU | -0.79 ± 0.11 | -1.55 ± 0.14 |
| UGUGAGCAAUAUUACGAGCA | -0.913 ± 0.16 | -0.797 ± 0.21 |
| GAAUAGCAAUAUUACGACGU | -0.363 ± 0.11 | 0.265 ± 0.13 |
| GCAGAGCAAUAUUACGUACU | -3.98 ± 0.3 | -2.29 ± 0.32 |
| CCAUAGCAAUAUUACGAGAG | -3.57 ± 0.16 | -2.56 ± 0.14 |
| CCAGAGCAAUAUUACGGAAG | -2.32 ± 0.13 | -2.1 ± 0.19 |
| GCAAAGCAAUAUUACGCGGC | -3.95 ± 0.21 | -2.43 ± 0.19 |
| CUCUAGCAAUAUUACGGGUA | -2.21 ± 0.14 | -1.05 ± 0.12 |
| AUUGAGCAAUAUUACGUGCC | -2.73 ± 0.4 |  |
| UUAGAGCAAUAUUACGUCAU | -3.46 ± 0.31 | -2.25 ± 0.33 |

| Sequence | self-splicing fitness (ln) (30 °C) | self-splicing fitness (ln) (37 °C) |
| --- | --- | --- |
| AGCGAGCAAUAUUACGGAAC | -3.53 ± 0.32 | -1.5 ± 0.29 |
| GCAAAGCAAUAUUACGGAUU | -0.922 ± 0.067 | -0.799 ± 0.1 |
| UAUGAGCAAUAUUACGAAUA | -2.94 ± 0.27 | -2.22 ± 0.21 |
| CGGCAGCAAUAUUACGGCGA | -3.18 ± 0.16 | -2.72 ± 0.18 |
| GGACAGCAAUAUUACGACGG | -2.69 ± 0.28 | -2.16 ± 0.36 |
| GUUAAGCAAUAUUACGGUUU | -0.85 ± 0.094 | -1.5 ± 0.12 |
| GAAGAGCAAUAUUACGCCGC | -2.05 ± 0.47 |  |
| UUAUAGCAAUAUUACGCGGG | -1.86 ± 0.17 | -1.92 ± 0.3 |
| CCCAAGCAAUAUUACGCCGC | -2.08 ± 0.37 | -1.07 ± 0.4 |
| AGCCAGCAAUAUUACGCCUG | -2.37 ± 0.16 | -2.11 ± 0.27 |
| GAGAAGCAAUAUUACGGGAA | -2.47 ± 0.25 | -1.24 ± 0.22 |
| UGCGAGCAAUAUUACGUCUA | -0.974 ± 0.15 | -0.453 ± 0.17 |
| GAUAAGCAAUAUUACGGUCG | -0.842 ± 0.1 | 0.117 ± 0.13 |
| ACAAAGCAAUAUUACGAUCU | -0.717 ± 0.067 | -0.0747 ± 0.083 |
| AGAAAGCAAUAUUACGGCAC | -0.435 ± 0.087 | -0.727 ± 0.13 |
| UUAGAGCAAUAUUACGGCCA | -1.02 ± 0.34 | 0.756 ± 0.35 |
| GGUCAGCAAUAUUACGCUAU | -1.32 ± 0.092 | -1.03 ± 0.096 |
| ACUCAGCAAUAUUACGGUCG | -3.23 ± 0.12 | -1.33 ± 0.1 |
| GACGAGCAAUAUUACGUACU | -1.64 ± 0.18 | -0.775 ± 0.14 |
| GCUCAGCAAUAUUACGCAGG | -1.52 ± 0.084 | -1.29 ± 0.098 |
| CGAAAGCAAUAUUACGUAAA | -2.45 ± 0.23 | -1.92 ± 0.31 |

Reference: the supplement of paper PMC7877785
